According to patent publication US8709741B2, “Methods of diagnosing a plasmodium infection” (priority 2009, dated 2014):

Assay: Enzymatic hydrolysis of purified lipoproteins (NEFA)
Format: biochemical, human
Conditions: 15 h at 37° C., each sPLA2 at approximately 10×IC50
Method: CM/VLDL, LDL and HDL were purified from human plasma and used either fresh (F) or after minimal oxidization by air and light (Ox). After phospholipid content determination, plasma, LDL and HDL were adjusted to 1.6 mg PL/mL final concentration in PBS calcium. Because low amount was available, the CM/VLDL fraction was adjusted to 1.0 mg PL/mL. Each sample was incubated for 15 hours at 37° C., alone or in the presence of recombinant human GX sPLA2 (hGX PLA2; 25 nM), recombinant human GIIF sPLA2 (hGIIF PLA2; 125 nM), bee venom sPLA2 (bvPLA2; 0.18 nM) and Naja mossambica mossambica venom sPLA2 (Naja PLA2; 0.05 nM). NEFAs were quantified using the NEFA-C kit (WAKO). Values are the mean±SD of triplicate measurements. They were normalized by subtracting NEFA amount in the absence of enzyme. Two independent experiments with lipoproteins from different plasmas were performed, which gave similar qualitative results. Results from one experiment are shown;
Plasma and purified LDL and HDL were adjusted to 1.67 mg phospholipid (PL)/mL final concentration in PBS. Because purification yielded low amount of CM/VLDL, the CM/VLDL fraction was adjusted to 1.00 mg PL/mL. CaCl2 (1 mM final) was added to the lipoprotein fractions. 200 μL of each fraction were deposited in a 96-well plate and incubated for 15 hours at 37° C., alone or in the presence of recombinant human GX sPLA2 (hGX PLA2, 25.0 nM), recombinant human GIIF sPLA2 (hGIIF PLA2, 125.0 nM), bee venom sPLA2 (bvPLA2, 0.18 nM) and Naja mossambica mossambica venom sPLA2 (Naja PLA2, 0.05 nM). NEFAs were measured in triplicate using the NEFA-C kit (WAKO). Value from each fraction was normalized by subtracting the NEFA amount in the corresponding fraction without enzyme. Two independent experiments with lipoproteins from different plasmas were performed, which gave similar qualitative results. According to the experiment, maximum hydrolysis reached 50% or 65% of total PLs in the fraction. […]

B1: X: recombinant human group X secreted phospholipase A2 (protein, UniProt O15496 43-165, looked up)
Group 10 secretory …: GILELAGTVGCVGPRTPIAYMKYGCFCGLGGHGQPRDAIDWCCHGHDCCYTRAEEAGCSPKTERYSWQCVNQSVLCGPAENKCQELLCKCDQEIANCLAQTEYNLKYLFYPQFLCEPDSPKCD
  preferential order of lipoprotein hydrolysis: HDL>LDL>CM/VLDL
